Source: the supplement of paper PMC9876800

Test system: peptide library, one residue held at a place counted from the S/T acceptor
Assay: relative phosphorylation of the sub-library (ratio to the mean residue at this position); human; higher = residue favoured
Method in brief: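 Relative sub-library phosphorylation is a ratio to the mean residue at the same position. Purified recombinant kinases were incubated under kinase-specific conditions with biotinylated degenerate peptide sub-libraries, each fixing one residue at one position around a central Ser/Thr, using 50 μM peptide and 50 μM ATP spiked with γ-32P-ATP for 90 min. Spots captured on streptavidin membranes were phosphorimaged and quantified by densitometry.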

Sequence of NEK6, construct: Full length (Q9HC98 whole entry, looked up): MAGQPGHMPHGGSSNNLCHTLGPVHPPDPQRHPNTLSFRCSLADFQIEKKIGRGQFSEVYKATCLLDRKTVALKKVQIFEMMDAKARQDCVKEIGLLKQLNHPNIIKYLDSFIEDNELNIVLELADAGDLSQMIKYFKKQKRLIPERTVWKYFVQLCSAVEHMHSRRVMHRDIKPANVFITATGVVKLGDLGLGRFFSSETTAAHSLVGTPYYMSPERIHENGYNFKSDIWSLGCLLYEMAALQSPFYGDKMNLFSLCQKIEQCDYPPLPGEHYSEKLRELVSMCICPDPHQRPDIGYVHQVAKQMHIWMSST

NEK6, construct: Full length (from UniProt Q9HC98)
relative phosphorylation
Conditions | at +1 | at +2 | at +3 | at +4 | at -1 | at -2 | at -3 | at -4 | at -5
A fixed | 0.844 | 1.17 | 0.962 | 0.822 | 1.21 | 1.16 | 1.04 | 1.26 | 1.16
D fixed | 0.481 | 0.764 | 0.624 | 0.699 | 1.47 | 2.91 | 0.911 | 2.11 | 2.07
E fixed | 0.344 | 0.325 | 0.564 | 0.578 | 1.96 | 1.89 | 0.611 | 1.18 | 1.15
F fixed | 1.46 | 0.69 | 0.987 | 0.886 | 0.525 | 0.647 | 1.61 | 0.839 | 0.875
G fixed | 1.02 | 1.27 | 1.69 | 1.26 | 0.75 | 1.75 | 1.06 | 1.13 | 1.36
H fixed | 1.2 | 1.23 | 1.13 | 1.02 | 1.13 | 0.982 | 0.792 | 0.894 | 0.979
I fixed | 0.646 | 0.568 | 0.537 | 0.616 | 0.434 | 0.425 | 0.495 | 0.531 | 0.632
K fixed | 0.65 | 1.61 | 1.4 | 1.78 | 1.22 | 0.663 | 0.48 | 0.837 | 0.849
L fixed | 0.886 | 0.443 | 0.767 | 0.593 | 0.72 | 0.612 | 2.04 | 0.735 | 0.747
M fixed | 1.57 | 0.747 | 0.704 | 0.626 | 0.859 | 0.789 | 1.2 | 0.71 | 0.753
N fixed | 1.2 | 1.87 | 1.24 | 0.917 | 1.38 | 1.6 | 0.869 | 1.29 | 1.16
P fixed | 0.367 | 0.985 | 1.12 | 1.4 | 0.326 | 0.521 | 1.78 | 1.32 | 1.09
Q fixed | 1.68 | 0.722 | 1.02 | 1.07 | 1.56 | 0.728 | 0.62 | 0.894 | 0.819
R fixed | 0.986 | 2.23 | 1.4 | 1.4 | 1.51 | 0.663 | 0.463 | 0.869 | 0.685
V fixed | 0.602 | 0.533 | 0.568 | 0.707 | 0.578 | 0.436 | 0.503 | 0.549 | 0.88
W fixed | 1.5 | 0.87 | 1.38 | 1.36 | 0.619 | 0.577 | 1.25 | 1.1 | 1.04
Y fixed | 1.56 | 0.989 | 0.901 | 1.27 | 0.744 | 0.65 | 1.27 | 0.75 | 0.767
pThr fixed | 0.602 | 0.396 | 0.534 | 0.628 | 0.494 | 0.773 | 0.677 | 0.906 | 0.992
pTyr fixed | 0.822 | 0.356 | 0.653 | 0.545 | 2.57 | 1.53 | 1.01 | 1.01 | 0.799
